Experimental data reported in patent US20150051136A1 (US Dept. of Health and Human Services, published 2015).

Molecular target: T1, sRAGE^CHO(N25T/N81T) (human, UniProt Q15109 26-340)
T1 construct: also called sRAGE (N25T/N81T); N25T/N81T mutant
Assay: BIAcore SPR, sRAGE amine-coupled to CM5 chip, S100B as analyte, steady state model

T1 sequence (Q15109 other isoform, or with tags, fused parts or gaps N25T N81T N25T N81T): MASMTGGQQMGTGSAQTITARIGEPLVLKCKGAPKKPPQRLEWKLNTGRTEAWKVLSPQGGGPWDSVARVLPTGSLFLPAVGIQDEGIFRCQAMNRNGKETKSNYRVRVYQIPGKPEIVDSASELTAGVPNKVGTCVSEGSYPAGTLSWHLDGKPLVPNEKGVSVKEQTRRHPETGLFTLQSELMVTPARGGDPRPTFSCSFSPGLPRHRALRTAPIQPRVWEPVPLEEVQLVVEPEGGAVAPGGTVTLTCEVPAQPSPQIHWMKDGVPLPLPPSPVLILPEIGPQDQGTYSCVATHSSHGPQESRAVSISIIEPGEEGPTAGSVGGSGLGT

B1: S100B (ligand)
chain: MSELEKAMVALIDVFHQYSGREGDKHKLKKSELKELINNELSHFLEEIKEQEVVDKVMETLDNDGDGECDFQEFMAFVAMVTTACHEFFEHE
  Kd: 13.6 nM
